Test results reported in patent publication US20220048967A1 (published 2022).
Numbered stars: 1 amine (or outer) side, 2 acyl side, 3 side chain; on linkers, the order of the positions; unused ones are H or OH. Square brackets hold non-standard residues; d marks the D form. Side chains are listed from the residue outwards. Ends that are not written are not given here. * marks the point of attachment. C20 diacid = O=C(O)CCCCCCCCCCCCCCCCCCC(=O)*; γGlu = O=C(O)[C@H](CCC(=O)[*:2])N[*:1]; αMeL = CC(C)C[C@](C)(N)C(=O)O; Dab = NCC[C@H](N)C(=O)O; Dap = NC[C@H](N)C(=O)O; AEEA = NCCOCCOCC(=O)O; Aib = CC(C)(N)C(=O)O

Key:
[1] = biological target: T1, human gastric inhibitory peptide receptor (GIPR) (human, UniProt P48546 22-466); experiment: cell-based or functional assay
T1 sequence (looked up): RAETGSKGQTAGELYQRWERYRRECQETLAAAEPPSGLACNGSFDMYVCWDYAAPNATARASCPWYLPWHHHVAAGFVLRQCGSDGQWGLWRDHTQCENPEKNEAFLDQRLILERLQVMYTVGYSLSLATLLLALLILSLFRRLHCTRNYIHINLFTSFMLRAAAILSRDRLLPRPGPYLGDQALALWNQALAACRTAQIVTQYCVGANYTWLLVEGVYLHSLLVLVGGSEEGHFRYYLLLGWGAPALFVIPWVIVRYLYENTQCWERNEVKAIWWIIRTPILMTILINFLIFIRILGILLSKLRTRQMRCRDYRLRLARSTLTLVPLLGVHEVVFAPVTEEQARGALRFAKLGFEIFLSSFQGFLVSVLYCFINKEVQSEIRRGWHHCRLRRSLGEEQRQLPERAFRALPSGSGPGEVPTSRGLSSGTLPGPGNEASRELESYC

[2] = biological target: human GLP-1 receptor (GLP-1R) (human, UniProt P43220 24-463); experiment: cell-based or functional assay

| Binder | hGIPR cAMP EC50 ratio [1] | hGIPR cAMP Rel EC50 [1] [nM] | hGLP1R cAMP EC50 ratio [2] | hGLP1R cAMP Rel EC50 [2] [nM] |
| --- | --- | --- | --- | --- |
| Y[Aib]EGTFTSDYSILLDEK([AEEA-AEEA-γGlu-C20 diacid])AQ[Aib]AFIEYLIAGGPSSGAPPPS-NH2 (N-terminus assumed; SMILES CC[C@H](C)[C@H](NC(=O)[C@H](CC(C)C)NC(=O)[C@H](Cc1ccc(O)cc1)NC(=O)[C@H](CCC(=O)O)NC(=O)[C@@H](NC(=O)[C@H](Cc1ccccc1)NC(=O)[C@H](C)NC(=O)C(C)(C)NC(=O)[C@H](CCC(N)=O)NC(=O)[C@H](C)NC(=O)[C@H](CCCCNC(=O)COCCOCCNC(=O)COCCOCCNC(=O)CC[C@H](NC(=O)CCCCCCCCCCCCCCCCCCC(=O)O)C(=O)O)NC(=O)[C@H](CCC(=O)O)NC(=O)[C@H](CC(=O)O)NC(=O)[C@H](CC(C)C)NC(=O)[C@H](CC(C)C)NC(=O)[C@@H](NC(=O)[C@H](CO)NC(=O)[C@H](Cc1ccc(O)cc1)NC(=O)[C@H](CC(=O)O)NC(=O)[C@H](CO)NC(=O)[C@@H](NC(=O)[C@H](Cc1ccccc1)NC(=O)[C@@H](NC(=O)CNC(=O)[C@H](CCC(=O)O)NC(=O)C(C)(C)NC(=O)[C@@H](N)Cc1ccc(O)cc1)[C@@H](C)O)[C@@H](C)O)[C@@H](C)CC)[C@@H](C)CC)C(=O)N[C@@H](C)C(=O)NCC(=O)NCC(=O)N1CCC[C@H]1C(=O)N[C@@H](CO)C(=O)N[C@@H](CO)C(=O)NCC(=O)N[C@@H](C)C(=O)N1CCC[C@H]1C(=O)N1CCC[C@H]1C(=O)N1CCC[C@H]1C(=O)N[C@@H](CO)C(N)=O) [Example 330] | 0.562 | 0.0919 | 0.255 | 0.199 |
| YXEGTFTSDYSIXLDEKAQXEFIEYLIAGGPSSGAPPPS (Aib2, αMeL13, (2-[2-(2-Amino-ethoxy)-ethoxy]-acetyl)2-(γ-Glu)-CO-(CH2)18-CO2H on K17, Aib20, C-terminal NH2) [Example 331] | 1.4 | 0.0547 | 0.808 | 0.0929 |
| YXEGTFTSDYSIXLDEKAQXAFIEYLIAGGPSSGAPPPS (Aib2, αMeL13, (2-[2-(2-Amino-ethoxy)-ethoxy]-acetyl)2-(γ-Glu)-CO-(CH2)18-CO2H on K17, Aib20, C-terminal NH2) [Example 332] | 0.949 | 0.0745 | 0.345 | 0.184 |
| YXEGTFTSDYSIXLDKKAQXEFIEYLIEGGPSSGAPPPS (not fully specified; Aib2, αMeL13, (2-[2-(2-Amino-ethoxy)-ethoxy]-acetyl)2-(γ-Glu)-CO-(CH2)18-CO2H on K17, Aib20, C-terminal NH2) [Example 333] | 2.31 | 0.0492 | 0.487 | 0.131 |
| XXEGTFTSDYSIXLDKKAQXAFIEYLIEGGPSSGAPPPS (not fully specified; D-Tyr1, Aib2, αMeL13, (2-[2-(2-Amino-ethoxy)-ethoxy]-acetyl)2-(γ-Glu)-CO-(CH2)18-CO2H on K17, Aib20, C-terminal NH2) [Example 334] | 0.844 | 0.0718 | 0.151 | 0.303 |
| FXEGTFTSDYSIXLDKKAQXAFIEYLIAGGPSSGAPPPS (not fully specified; Aib2, αMeL13, (2-[2-(2-Amino-ethoxy)-ethoxy]-acetyl)2-(γ-Glu)-CO-(CH2)18-CO2H on K17, Aib20, C-terminal NH2) [Example 337] | 1.18 | 0.0515 | 0.265 | 0.173 |
| FXEGTFTSDYSIXLDKKAQXEFIEYLIAGGPSSGAPPPS (not fully specified; Aib2, αMeL13, (2-[2-(2-Amino-ethoxy)-ethoxy]-acetyl)2-(γ-Glu)-CO-(CH2)18-CO2H on K17, Aib20, C-terminal NH2) [Example 338] | 1.29 | 0.0472 | 0.262 | 0.174 |
| YXEGTFTSDYSIXLDKKAQXEFIEYLIAGGPSSGAPPPS (not fully specified; Aib2, αMeL13, (2-[2-(2-Amino-ethoxy)-ethoxy]-acetyl)-(γ-Glu)-CO-(CH2)18-CO2H on K17, Aib20, C-terminal NH2) [Example 339] | 3.18 | 0.0219 | 0.574 | 0.0986 |
| XXEGTFTSDYSIXLDKKAQXAFIEYLIAGGPSSGAPPPS (not fully specified; D-Tyr1, Aib2, αMeL13, (2-[2-(2-Amino-ethoxy)-ethoxy]-acetyl)2-(γ-Glu)-CO-(CH2)18-CO2H on K17, Aib20, C-terminal NH2) [Example 340] | 0.852 | 0.0823 | 0.183 | 0.252 |
| XXEGTFTSDYSIXLDEKAQXAFIEYLIAGGPSSGAPPPS (not fully specified; D-Tyr1, Aib2, αMeL13, (2-[2-(2-Amino-ethoxy)-ethoxy]-acetyl)2-(γ-Glu)-CO-(CH2)18-CO2H on K17, Aib20, C-terminal NH2) [Example 341] | 0.213 | 0.238 | 0.0674 | 0.373 |
| XXEGTFTSDYSIXLDEKAQXEFIEYLIAGGPSSGAPPPS (not fully specified; D-Tyr1, Aib2, αMeL13, (2-[2-(2-Amino-ethoxy)-ethoxy]-acetyl)2-(γ-Glu)-CO-(CH2)18-CO2H on K17, Aib20, C-terminal NH2) [Example 342] | 0.32 | 0.159 | 0.198 | 0.127 |
| YXEGTFTSDYSIXLDEKAQXAFIXYLIAGGPSSGAPPPS (not fully specified; Aib2, αMeL13, (2-[2-(2-Amino-ethoxy)-ethoxy]-acetyl)2-(γ-Glu)-CO-(CH2)18-CO2H on K17, Aib20, D-Glu24, C-terminal NH2) [Example 343] | 1.84 | 0.0422 | 0.662 | 0.124 |
| YXEGTFTSDYSIXLDEKAQXDFIEYLIAGGPSSGAPPPS (Aib2, αMeL13, (2-[2-(2-Amino-ethoxy)-ethoxy]-acetyl)2-(γ-Glu)-CO-(CH2)18-CO2H on K17, Aib20, C-terminal NH2) [Example 344] | 1.79 | 0.0433 | 1.86 | 0.044 |
| XXEGTFTSDYSIXLDXKAQXAFIEYLIAGGPSSGAPPPS (D-Tyr1, Aib2, αMeL13, Orn16, (2-[2-(2-Amino-ethoxy)-ethoxy]-acetyl)2-(γ-Glu)-CO-(CH2)18-CO2H on K17, Aib20, C-terminal NH2) [Example 346] | 0.604 | 0.144 | 0.21 | 0.128 |
| [dY][Aib]EGTFTSDYSI[αMeL]LD[Dab]K([AEEA-AEEA-γGlu-C20 diacid])AQ[Aib]AFIEYLIAGGPSSGAPPPS-NH2 (N-terminus assumed; SMILES CC[C@H](C)[C@H](NC(=O)[C@H](CC(C)C)NC(=O)[C@H](Cc1ccc(O)cc1)NC(=O)[C@H](CCC(=O)O)NC(=O)[C@@H](NC(=O)[C@H](Cc1ccccc1)NC(=O)[C@H](C)NC(=O)C(C)(C)NC(=O)[C@H](CCC(N)=O)NC(=O)[C@H](C)NC(=O)[C@H](CCCCNC(=O)COCCOCCNC(=O)COCCOCCNC(=O)CC[C@H](NC(=O)CCCCCCCCCCCCCCCCCCC(=O)O)C(=O)O)NC(=O)[C@H](CCN)NC(=O)[C@H](CC(=O)O)NC(=O)[C@H](CC(C)C)NC(=O)[C@](C)(CC(C)C)NC(=O)[C@@H](NC(=O)[C@H](CO)NC(=O)[C@H](Cc1ccc(O)cc1)NC(=O)[C@H](CC(=O)O)NC(=O)[C@H](CO)NC(=O)[C@@H](NC(=O)[C@H](Cc1ccccc1)NC(=O)[C@@H](NC(=O)CNC(=O)[C@H](CCC(=O)O)NC(=O)C(C)(C)NC(=O)[C@H](N)Cc1ccc(O)cc1)[C@@H](C)O)[C@@H](C)O)[C@@H](C)CC)[C@@H](C)CC)C(=O)N[C@@H](C)C(=O)NCC(=O)NCC(=O)N1CCC[C@H]1C(=O)N[C@@H](CO)C(=O)N[C@@H](CO)C(=O)NCC(=O)N[C@@H](C)C(=O)N1CCC[C@H]1C(=O)N1CCC[C@H]1C(=O)N1CCC[C@H]1C(=O)N[C@@H](CO)C(N)=O) [Example 347] | 0.872 | 0.0827 | 0.245 | 0.102 |
| [dY][Aib]EGTFTSDYSI[αMeL]LD[Dap]K([AEEA-AEEA-γGlu-C20 diacid])AQ[Aib]AFIEYLIAGGPSSGAPPPS-NH2 (N-terminus assumed; SMILES CC[C@H](C)[C@H](NC(=O)[C@H](CC(C)C)NC(=O)[C@H](Cc1ccc(O)cc1)NC(=O)[C@H](CCC(=O)O)NC(=O)[C@@H](NC(=O)[C@H](Cc1ccccc1)NC(=O)[C@H](C)NC(=O)C(C)(C)NC(=O)[C@H](CCC(N)=O)NC(=O)[C@H](C)NC(=O)[C@H](CCCCNC(=O)COCCOCCNC(=O)COCCOCCNC(=O)CC[C@H](NC(=O)CCCCCCCCCCCCCCCCCCC(=O)O)C(=O)O)NC(=O)[C@H](CN)NC(=O)[C@H](CC(=O)O)NC(=O)[C@H](CC(C)C)NC(=O)[C@](C)(CC(C)C)NC(=O)[C@@H](NC(=O)[C@H](CO)NC(=O)[C@H](Cc1ccc(O)cc1)NC(=O)[C@H](CC(=O)O)NC(=O)[C@H](CO)NC(=O)[C@@H](NC(=O)[C@H](Cc1ccccc1)NC(=O)[C@@H](NC(=O)CNC(=O)[C@H](CCC(=O)O)NC(=O)C(C)(C)NC(=O)[C@H](N)Cc1ccc(O)cc1)[C@@H](C)O)[C@@H](C)O)[C@@H](C)CC)[C@@H](C)CC)C(=O)N[C@@H](C)C(=O)NCC(=O)NCC(=O)N1CCC[C@H]1C(=O)N[C@@H](CO)C(=O)N[C@@H](CO)C(=O)NCC(=O)N[C@@H](C)C(=O)N1CCC[C@H]1C(=O)N1CCC[C@H]1C(=O)N1CCC[C@H]1C(=O)N[C@@H](CO)C(N)=O) [Example 348] | 0.373 | 0.193 | 0.224 | 0.113 |
| XXEGTFTSDYSIXLDXKAQXEFIEYLIAGGPSSGAPPPS (D-Tyr1, Aib2, αMeL13, Orn16, (2-[2-(2-Amino-ethoxy)-ethoxy]-acetyl)2-(γ-Glu)-CO-(CH2)18-CO2H on K17, Aib20, C-terminal NH2) [Example 349] | 0.756 | 0.117 | 0.214 | 0.121 |
